Data published in PMC12269843 (2025).
Where no end group is shown, it is not given here. [ ]: non-standard residue; d: D form. Cit = NC(=O)NCCC[C@H](N)C(=O)O

Target: HLA-DRB1*04:05 protein (human)
Experiment: FP

IC50: 4.81 µM
Binder: D[Cit]Y[Cit]LNYSLPTG [TNC1014,1016cit peptide]
